Substitutions are numbered along the chain they refer to. Numbers in names are those of the source. No end group written: not given here. TMR = tetramethyl rhodamine dye

Holding throughout (assay): fluorescence polarisation; 25 °C; unlabeled Rb^P titrated against 1.5 nM TMR-E2F1^TD or 7.5 nM TMR-E7^LxCxE; 25 mM Tris pH 8.0, 200 mM NaCl, 1 mM DTT, 0.1% Tween-20; 2 min incubation; quadratic fit; apparent Kd for the variants, Kd for WT
What all share (details): both partners purified
In general terms: In fluorescence polarisation assays a small probe gives low polarisation when free and higher when bound to something large.

One experiment deals with T1, Rb^P E492Q (human, UniProt P06400 380-788, E492Q).
T1 construct: also called variant 18
T1 sequence (looked up): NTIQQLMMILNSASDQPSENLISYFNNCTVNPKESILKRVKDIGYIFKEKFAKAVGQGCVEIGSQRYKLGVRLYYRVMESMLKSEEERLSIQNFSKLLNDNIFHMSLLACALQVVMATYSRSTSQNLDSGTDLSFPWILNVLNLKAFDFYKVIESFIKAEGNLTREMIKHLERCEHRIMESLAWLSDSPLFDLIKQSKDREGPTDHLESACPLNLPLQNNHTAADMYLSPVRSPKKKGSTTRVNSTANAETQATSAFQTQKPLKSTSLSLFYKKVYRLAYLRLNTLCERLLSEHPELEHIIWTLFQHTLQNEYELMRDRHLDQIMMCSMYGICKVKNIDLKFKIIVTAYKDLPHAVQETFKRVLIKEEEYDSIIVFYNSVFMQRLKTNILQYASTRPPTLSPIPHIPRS

The target of a further experiment is T2, Rb^P E533K (human, UniProt P06400 380-788, E533K).
T2 construct: also called variant 22
T2 sequence (looked up): T1 sequence (looked up) with Q113E, E154K

A further experiment addresses T3, Rb^P H673P (human, UniProt P06400 380-788, H673P).
T3 construct: also called variant 54
T3 sequence (looked up): T1 sequence (looked up) with Q113E, H294P

The target of a further experiment is T4, Rb^P M695I (human, UniProt P06400 380-788, M695I).
T4 construct: also called variant 61
T4 sequence (looked up): T1 sequence (looked up) with Q113E, M316I

The target in a further experiment is T5, Rb^P S751Y (human, UniProt P06400 380-788, S751Y).
T5 construct: also called variant 72
T5 sequence (looked up): T1 sequence (looked up) with Q113E, S372Y

B1: TMR-E2F1^TD, peptide of the E2F1 transactivation domain (peptide)
peptide: {TMR}-GEGIRDLFDCDFGDLTPLD
notes: also called E2F^TD; source: synthetic peptide, bought: GenScript
For B1, the Kd came to 22 nM with Rb^P E492Q; 810 nM with Rb^P E533K; 42 nM with Rb^P H673P; 43 nM in the experiment with Rb^P M695I; 33 nM with Rb^P S751Y.

B2: TMR-E7^LxCxE, LxCxE peptide of the E7 oncoprotein from HPV (peptide)
peptide: DLYCYEQLN
modifications: also: TMR label, position not given here
notes: source: synthetic peptide, bought: GenScript
B2: the Kd in the experiment with Rb^P E492Q is 14 nM; in the experiment with Rb^P E533K, 6 nM; with Rb^P H673P it was 24 nM; in the experiment with Rb^P M695I, 11 nM; with Rb^P S751Y it was 127 nM.

The values above are taken from PMC11931385, “Structural and functional analysis of cancer-associated missense variants in the retinoblastoma protein pocket domain” (The Journal of Biological Chemistry, 2025).
